Laboratory results reported in patent US12344663B2, “Anti-C3 antibodies and antigen-binding fragments thereof and their uses for treating eye or ocular diseases” (CDR-Life AG, priority 2021, dated 2025).

Tests used:
human C3 = human C3 (Homo sapiens, UniProt P01024); assay: SPR (Biacore T100) binding to human C3; conditions: C3 and C3b
Experimental: The kinetic parameters of the candidates are determined using a surface plasmon resonance (SPR) and Biacore T100 device. C3 and different variants thereof (Table 19) are immobilized as a ligand on a HC30M SPR sensor chip (XanTec bionanalytics, Germany) using EDC/[…] linking chemistry. Five increasing concentrations of each molecule (analyte) are consecutively injected using the single cycle kinetics (SCK) mode to determine the kinetic parameters. Regeneration between the candidates is done with 10 mM glycine*HCl, 2 M NaCl, pH 3.5. The data is fitted to a 1:1 Langmuir binding model and the kinetic parameters of on-rate (ka), off-rate (kd), and affinity […] were determined.

[1] = Thermal stability by differential scanning fluorimetry (DSF); type: physicochemical; conditions: for Melting temperature: DSF, Example 4
Source text: Differential scanning fluorimetry (DSF) measures protein unfolding by monitory changes in fluorescence as a function of temperature.
The temperature of protein unfolding (Tm) is tied to the stability of antibodies, specifically to aggregation during storage and long-term stability of the therapeutic product. The thermal transitions of monoclonal antibody CH2 and CH3 domains are typically invariant for different antibodies within an isotype, with the CH2 domain unfolding prior to the CH3 domain.

complement pathways = assay: Complement inhibition assays, comparison with parental Clone IV; type: biochemical, human; conditions: in words
Source text: (§1) To identify antibodies that block all 3 complement pathways, antibodies are screened using an enzyme immunoassay for the qualitative determination of functional classical, lectin and alternative complement pathways in human serum using the WEISLAB® Complement system Screen (Svar Life Science AB, Malmö, Sweden).

[2] = Concentration-dependent monomeric stability study at 37° C.; type: physicochemical; conditions: for Loss in monomeric content after 2 weeks of incubation at 37° C.: Clone XIII at 150 mg/mL, Clone XIV at 50 mg/mL; for Loss in monomeric content with concentration: Clone XIII concentrated to 150 mg/mL, Clone XIV to 50 mg/mL
[3] = 40 nmol IVT, scFv versus Fab (ranibizumab); in words; cited from earlier work
Classical Pathway = assay: WEISLAB Complement system Screen, classical pathway MAC (C5b-C9) formation; type: biochemical, human; conditions: single dose of 2 μM; CP-dependent MAC formation
Experimental: as §1
(§2) To monitor inhibition of the complement system in human serum, the scFv of the invention or the comparator molecules are tested using an enzyme immunoassay for the qualitative determination of functional classical, lectin and alternative complement pathways in human serum using the WEISLAB® Complement system Screen (Svar Life Science AB, Malmö, Sweden), following the supplier's instructions. The amount of C5b-C9 neoantigen generated is proportional to the functional activity of complement pathways. The scFv of the invention and the comparator molecules are tested in a concentration response curve and the IC50 for the inhibition is calculated using the GraphPadPrism software and a non-linear, 4 parameters curve regression.

Lectin Pathway = assay: WEISLAB Complement system Screen, lectin pathway MAC (C5b-C9) formation; type: biochemical, human; conditions: single dose of 2 μM; LP-dependent MAC formation
Experimental: as §1, §2

Alternative Pathway = assay: WEISLAB Complement system Screen, alternative pathway MAC (C5b-C9) formation; type: biochemical, human; conditions: single dose of 2 μM; AP-dependent MAC formation
Experimental: as §1, §2

Chain of human C3 (P01024 23-1663): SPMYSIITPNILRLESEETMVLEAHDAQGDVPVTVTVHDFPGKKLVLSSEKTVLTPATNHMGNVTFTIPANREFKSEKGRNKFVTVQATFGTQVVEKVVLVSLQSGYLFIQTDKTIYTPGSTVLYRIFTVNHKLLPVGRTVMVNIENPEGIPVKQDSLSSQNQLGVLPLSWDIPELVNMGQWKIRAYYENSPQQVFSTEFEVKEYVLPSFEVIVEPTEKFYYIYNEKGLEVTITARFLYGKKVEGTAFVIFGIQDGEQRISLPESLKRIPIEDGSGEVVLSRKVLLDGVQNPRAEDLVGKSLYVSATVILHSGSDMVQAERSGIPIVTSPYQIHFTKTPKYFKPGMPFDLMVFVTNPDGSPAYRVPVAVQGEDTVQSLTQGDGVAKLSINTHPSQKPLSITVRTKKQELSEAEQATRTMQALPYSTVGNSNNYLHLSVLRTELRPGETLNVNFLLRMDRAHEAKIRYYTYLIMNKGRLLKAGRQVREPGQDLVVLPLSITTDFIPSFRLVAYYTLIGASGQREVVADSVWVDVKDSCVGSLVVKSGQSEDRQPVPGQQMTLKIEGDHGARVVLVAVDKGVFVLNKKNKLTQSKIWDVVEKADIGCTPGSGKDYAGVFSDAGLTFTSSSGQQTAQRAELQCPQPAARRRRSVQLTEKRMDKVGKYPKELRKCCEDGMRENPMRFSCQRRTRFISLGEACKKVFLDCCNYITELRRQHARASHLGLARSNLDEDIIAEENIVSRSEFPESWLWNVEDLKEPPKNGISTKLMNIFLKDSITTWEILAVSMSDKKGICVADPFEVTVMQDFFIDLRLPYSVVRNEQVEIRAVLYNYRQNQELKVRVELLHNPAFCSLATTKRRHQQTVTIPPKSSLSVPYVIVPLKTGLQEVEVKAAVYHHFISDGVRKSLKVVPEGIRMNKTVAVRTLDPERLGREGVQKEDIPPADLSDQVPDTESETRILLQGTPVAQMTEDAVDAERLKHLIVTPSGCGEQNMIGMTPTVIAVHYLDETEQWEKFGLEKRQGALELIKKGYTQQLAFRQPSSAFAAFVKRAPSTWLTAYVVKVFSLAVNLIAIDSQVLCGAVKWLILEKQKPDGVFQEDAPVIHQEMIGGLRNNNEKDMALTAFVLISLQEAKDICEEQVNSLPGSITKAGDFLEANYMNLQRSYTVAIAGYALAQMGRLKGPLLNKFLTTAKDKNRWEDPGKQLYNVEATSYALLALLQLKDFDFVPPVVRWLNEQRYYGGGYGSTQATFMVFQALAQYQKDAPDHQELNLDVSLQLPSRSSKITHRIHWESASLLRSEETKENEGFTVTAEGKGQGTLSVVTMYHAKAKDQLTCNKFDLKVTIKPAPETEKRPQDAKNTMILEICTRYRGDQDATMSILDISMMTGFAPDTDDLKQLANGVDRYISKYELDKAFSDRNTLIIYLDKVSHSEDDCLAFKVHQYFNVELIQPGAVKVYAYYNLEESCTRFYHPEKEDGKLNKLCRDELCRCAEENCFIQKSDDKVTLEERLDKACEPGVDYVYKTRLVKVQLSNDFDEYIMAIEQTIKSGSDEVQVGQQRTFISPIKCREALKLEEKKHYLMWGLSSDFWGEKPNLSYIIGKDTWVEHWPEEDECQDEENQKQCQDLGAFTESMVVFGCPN

B1: Clone VI: Clone V with additional rabbit residues replaced by germline, SEQ ID NO: 34 (protein)
scFv: MQLVLTQSPSASASLGASVKLTCTLSSAHKTYTIDWYQQQPEKGPRYLMQLKSDGSYTKGTGVPDRFSGSSSGAERYLTISSLQSEDEADYYCGTDYGGGYVFGGGTKLTVLGGGGGSGGGGSGGGGSGGGGSQVQVVESGGGSVQPGRSLRLSCAASGFSLYNYAMNWVRQAPGKGLEWIGIINTDGNTNYASWAKGRFTISTDNSKNTLYLQMNSLRAEDTASYYCARAVGYHHHALDPWGQGTSVTVSS
modifications: ScFv
- Binding affinity to C3 and C3b compared to parental molecule Clone IV (human C3; in words): comparable to the parental molecule
- Increase of thermal stability of the construct ([1]; versus preceding variant): 11.7 °C

B2: Clone VIII: affinity maturation hit scFv, SEQ ID NO: 36 (protein)
scFv: MQLVLTQSPSASASLGASVKLTCTLSSAHKTYTIDWYQQQPEKGPRYLMQLKSEGSYTKGTGVPDRFSGSSSGAERYLTISSLQSEDSAVYYCGTEGVGGYVFGCGTKLTVLGGGGGSGGGGSGGGGSGGGGSQVQVVESGGGSVQPGRSLRLSCAVSGFSLYNYAMNWVRQAPGKCLEWIGIINVGGGTNYASWAKGRFTISTDNSKNTVYLQMNSLRAEDTASYYCARAVGYHHSRLDPWGQGTSVTVSS
modifications: ScFv
- Increase in the binding affinity to C3 and C3b compared to Clone IV (human C3): approximately 10 fold
- Complement inhibition activity compared to parental molecule Clone IV (complement pathways): superior performance

B3: Clone XII: scFv combining affinity maturation substitutions and disulfide bond stabilization, SEQ ID NO: 40 (protein)
scFv: MQLVLTQSPSASASLGASVKLTCTLSSAHKTYTIDWYQQQPEKCPRYLMQLKSEGSYTKGTGVPDRFSGSSSGAERYLTISSLQSEDEADYYCGTDYGGGYVFGGGTKLTVLGGGGGSGGGGSGGGGSGGGGSQVQVVESGGGSVQPGRSLRLSCAVSGFSLYNYAMNWVRQAPGKGLEWIGIINVGGGTNYASWAKGRFTISTDNSKNTVYLQMNSLRAEDTASYYCARAVGYHHARLDPWGCGTSVTVSS
modifications: ScFv
- Melting temperature [1]: 70.4 °C

B4: Clone XIII: scFv combining affinity maturation substitutions and disulfide bond stabilization, SEQ ID NO: 41 (protein)
scFv: MQLVLTQSPSASASLGASVKLTCTLSSAHKTYTIDWYQQQPEKCPRYLMQLKSEGSYTKGTGVPDRFSGSSSGAERYLTISSLQSEDEADYYCGTEGVGGYVFGGGTKLTVLGGGGGSGGGGSGGGGSGGGGSQVQVVESGGGSVQPGRSLRLSCAVSGFSLYNYAMNWVRQAPGKGLEWIGIINVGGGTNYASWAKGRFTISTDNSKNTVYLQMNSLRAEDTASYYCARAVGYHHARLDPWGCGTSVTVSS
modifications: ScFv
- Melting temperature [1]: 67.7 °C
- Loss in monomeric content after 2 weeks of incubation at 37° C. [2]: 2.2%
- Loss in monomeric content with concentration [2]: no loss

B5: Clone XIV: scFv combining affinity maturation substitutions and disulfide bond stabilization, SEQ ID NO: 42 (protein)
scFv: MQLVLTQSPSASASLGASVKLTCTLSSAHKTYTIDWYQQQPEKCPRYLMQLKSEGSYTKGTGVPDRFSGSSSGAERYLTISSLQSEDEADYYCGTEGVGGYVFGGGTKLTVLGGGGGSGGGGSGGGGSGGGGSQVQVVESGGGSVQPGRSLRLSCAVSGFSLYNYAMNWVRQAPGKGLEWIGIINVGGGTNYASWAKGRFTISTDNSKNTVYLQMNSLRAEDTASYYCARAVGYHHSRLDPWGCGTSVTVSS
modifications: ScFv
- Melting temperature [1]: 67.2 °C
- Loss in monomeric content after 2 weeks of incubation at 37° C. [2]: 2.3%
- Loss in monomeric content with concentration [2]: 1.6%

B6: Beovu: comparator in EpiMatrix table; brolucizumab is a scFv (antibody, chains of the INN, looked up, V domains shown)
VH: EVQLVESGGGLVQPGGSLRLSCTASGFSLTDYYYMTWVRQAPGKGLEWVGFIDPDDDPYYATWAKGRFTISRDNSKNTLYLQMNSLRAEDTAVYYCAGGDHNSGWGLDIWGQGTLVTVSS
VL: EIVMTQSPSTLSASVGDRVIITCQASEIIHSWLAWYQQKPGKAPKLLIYLASTLASGVPSRFSGSGSGAEFTLTISSLQPDDFATYYCQNVYLASTNGANFGQGTKLTVL
modifications: scFv
notes: brolucizumab is a scFv
- Retinal penetration after equimolar intravitreal injection [3]: improved retinal penetration

B7: Clone IV: rabbit-derived parental anti-C3 antibody, SEQ ID NO: 32 (protein)
chain: QSVKESGGRLVTPGTPLTLTCTVSGFSLYNYAMNWVRQAPGKGLEWIGIINTDGNTNYASWAKGRFTISTTSSTTVDLKITSPTTEDTATYFCPRAVGYHHHALDPWGPGTLVTVSSGGGGSGGGGSGGGGSGGGGASELVLTQSPSVSAALGASAKLTCTLSSAHKTYTIDWYQQQQGEAPRYLMQLKSDGSYTKGTGVPDRFSGSSSGADRYLIIPSVQADDEADYYCGTDYGGGYVFGGGTQLTVTG
modifications: scFv
- Residual classical pathway complement activity with Clone IV (Classical Pathway): 2.9 ± 0.0%
- Residual lectin pathway complement activity with Clone IV [%] (Lectin Pathway): 0.5 ± 0.9%
- Residual alternative pathway complement activity with Clone IV [%] (Alternative Pathway): −0.1 ± 0.2%
